We go through 5 molecules from paper PMC6939996 (Nature, 2019).

First the molecules themselves.
T1: BBP/Mud2 dimer (S. cerevisiae, UniProt Q12186 1-476; P36084 1-527)
T1 sequence (looked up) 1: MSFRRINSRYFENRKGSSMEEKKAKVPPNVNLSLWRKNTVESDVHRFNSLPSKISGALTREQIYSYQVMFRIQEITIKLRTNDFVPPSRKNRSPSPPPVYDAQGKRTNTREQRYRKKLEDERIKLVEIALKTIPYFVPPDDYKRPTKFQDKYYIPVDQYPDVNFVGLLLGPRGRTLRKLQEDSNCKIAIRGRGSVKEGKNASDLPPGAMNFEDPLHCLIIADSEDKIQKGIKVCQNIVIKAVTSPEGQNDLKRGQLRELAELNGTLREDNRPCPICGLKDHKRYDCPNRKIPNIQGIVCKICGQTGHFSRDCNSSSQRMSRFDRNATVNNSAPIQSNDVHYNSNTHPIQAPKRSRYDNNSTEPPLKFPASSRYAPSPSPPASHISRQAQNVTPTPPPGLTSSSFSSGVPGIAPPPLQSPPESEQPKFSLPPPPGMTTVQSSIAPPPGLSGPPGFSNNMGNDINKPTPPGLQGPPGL
T1 sequence (looked up) 2: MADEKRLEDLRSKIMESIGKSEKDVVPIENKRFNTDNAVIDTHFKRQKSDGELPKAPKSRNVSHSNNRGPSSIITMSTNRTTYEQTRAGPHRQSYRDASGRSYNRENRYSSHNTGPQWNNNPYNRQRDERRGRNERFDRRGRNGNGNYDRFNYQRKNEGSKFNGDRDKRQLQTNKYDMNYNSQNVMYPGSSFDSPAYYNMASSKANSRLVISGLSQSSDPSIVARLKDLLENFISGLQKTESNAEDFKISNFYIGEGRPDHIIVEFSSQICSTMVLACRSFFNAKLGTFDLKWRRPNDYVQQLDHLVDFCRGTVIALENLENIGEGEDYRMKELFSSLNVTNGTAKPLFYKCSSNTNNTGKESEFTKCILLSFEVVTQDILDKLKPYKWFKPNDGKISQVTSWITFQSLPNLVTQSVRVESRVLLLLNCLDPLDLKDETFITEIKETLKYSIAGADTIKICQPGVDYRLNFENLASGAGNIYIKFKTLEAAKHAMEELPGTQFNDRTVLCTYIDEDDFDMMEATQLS

B1: U1-70K (in the purified U1 snRNP of the Ubc4 E complex) (natural protein, S. cerevisiae)
chain: MNYNLSKYPDDVSRLFKPRPPLSYKRPTDYPYAKRQTNPNITGVANLLSTSLKHYMEEFPEGSPNNHLQRYEDIKLSKIKNAQLLDRRLQNWNPNVDPHIKDTDPYRTIFIGRLPYDLDEIELQKYFVKFGEIEKIRIVKDKITQKSKGYAFIVFKDPISSKMAFKEIGVHRGIQIKDRICIVDIERGRTVKYFKPRRLGGGLGGRGYSNRDSRLPGRFASASTSNPAERNYAPRLPRRETSSSAYSADRYGSSTLDARYRGNRPLLSAATPTAAVTSVYKSRNSRTRESQPAPKEAPDY
B2: Snu56 (in the purified U1 snRNP of the Ubc4 E complex) (natural protein, S. cerevisiae)
chain: MRPRRRGLAYHHTKPKGQLSQGHYPTTSNDGQRRKVGNSEAFQSFDIWKNLDRIRSTKKNAGQFIKGSLLILPMRTEDKQQFDECMDELHKYISKDILRCYPQKEQKDEGMLFYIVLKDFNILDSCFVLSVLLAFQKRLWMAPSEKSYFRVPKNINLTGSFYLPKNIETGRGHIITSYRREQPSSSIVEVGFNVVPDFQQFQVKACHVSKFMNELSNFFSQVEFGKCEANVINYFKREYNRTYSQISLALYELPLIGDGLFDIKSYISKTRPIIETSKAQMIKHISEMKAYNEISGLQGDQFPRQQRPLSNSPSSNSISSSQTIEAGATSYQTQPQRHAVNKPSNVLNSSNRHSGPKTFEDGRYSEGNKPGFMTQDEIKQHCIGTIKASMDAVKKKSSYQILKTYVRCPRQNYIDIVYQNLNDLRSKTNCNIVVLNLNNLHESQMWLESLNTTNYTIFAQAPHPSTIRVISIGGVGEYIVKALELILNILEH
B3: Snu71 (in the purified U1 snRNP of the Ubc4 E complex) (natural protein, S. cerevisiae, UniProt P53207 1-620, looked up)
chain: MRDIVFVSPQLYLSSQEGWKSDSAKSGFIPILKNDLQRFQDSLKHIVDARNSLSETLLNSNDDGSIHNSDQNTGLNKDKEASIADNNSANKCATSSSRYQELKQFLPISLDQQIHTVSLQGVSSSFSRGQIESLLDHCLNLALTETQSNSALKVEAWSSFSSFLDTQDIFIRFSKVDEDEAFVNTLNYCKALFAFIRKLHEDFKIELHLDLNTKEYVEDRTGTIPSVKPEKASEFYSVFKNIEDQTDERNSKKEQLDDSSTQYKVDTNTLSDLPSDALDQLCKDIIEFRTKVVSIEKEKKMKSTYEESRRQRHQMQKVFDQIRKNHSGAKGSANTEEEDTNMEDEDEEDDTEDDLALEKRKEERDLEESNRRYEDMLHQLHSNTEPKIKSIRADIMSAENYEEHLEKNRSLYLKELLHLANDVHYDHHRSFKEQEERRDEEDRAKNGNAKELAPIQLSDGKAISAGKAAAITLPEGTVKSENYNADKNVSESSEHVKIKFDFKKAIDHSVESSSEDEGYRESELPPTKPSERSAAEDRLPFTADELNIRLTNLKESRYVDELVREFLGVYEDELVEYILENIRVNQSKQALLNELRETFDEDGETIADRLWSRKEFRLGT
B4: Prp40 (in the purified U1 snRNP of the Ubc4 E complex) (natural protein)
chain: MSIWKEAKDASGRIYYYNTLTKKSTWEKPKELISQEELLLRENGWKAAKTADGKVYYYNPTTRETSWTIPAFEKKVEPIAEQKHDTVSHAQVNGNRIALTAGEKQEPGRTINEEESQYANNSKLLNVRRRTKEEAEKEFITMLKENQVDSTWSFSRIISELGTRDPRYWMVDDDPLWKKEMFEKYLSNRSADQLLKEHNETSKFKEAFQKMLQNNSHIKYYTRWPTAKRLIADEPIYKHSVVNEKTKRQTFQDYIDTLIDTQKESKKKLKTQALKELREYLNGIITTSSSETFITWQQLLNHYVFDKSKRYMANRHFKVLTHEDVLNEYLKIVNTIENDLQNKLNELRLRNYTRDRIARDNFKSLLREVPIKIKANTRWSDIYPHIKSDPRFLHMLGRNGSSCLDLFLDFVDEQRMYIFAQRSIAQQTLIDQNFEWNDADSDEITKQNIEKVLENDRKFDKVDKEDISLIVDGLIKQRNEKIQQKLQNERRILEQKKHYFWLLLQRTYTKTGKPKPSTWDLASKELGESLEYKALGDEDNIRRQIFEDFKPESSAPTAESATANLTLTASKKRHLTPAVELDY
B5: Luc7 (in the purified U1 snRNP of the Ubc4 E complex) (natural protein, S. cerevisiae)
chain: MSTMSTPAAEQRKLVEQLMGRDFSFRHNRYSHQKRDLGLHDPKICKSYLVGECPYDLFQGTKQSLGKCPQMHLTKHKIQYEREVKQGKTFPEFEREYLAILSRFVNECNGQISVALQNLKHTAEERMKIQQVTEELDVLDVRIGLMGQEIDSLIRADEVSMGMLQSVKLQELISKRKEVAKRVRNITENVGQSAQQKLQVCEVCGAYLSRLDTDRRLADHFLGKIHLGYVKMREDYDRLMKNNRTTNASKTATTLPGRRFV

Holding throughout (experiment): cross-linking
In assay [1] the target is B4.
Assay [2] has as its target T1, BBP/Mud2 dimer.
The target in assay [3] is B3.

As for B1, the binding result in assay [1] is “binds”.

In the case of B2, the binding result in assay [2] is “binds”.

For the molecule B3, the binding result in assay [2] is “binds”.

As to B4, the binding result in assay [3] and in assay [2] was “binds” in each case.

Take B5: the binding result in assay [1] and in assay [2] was “binds” in each case.
